We go through three molecules from patent US12331310B2, “Cell membrane penetrating conjugates for gene editing” (priority 2019, dated 2025).

Where “and” joins values, the source holds several entries; their conditions need not be identical. Equal values may be shown once.

Holding throughout (format): cell-based
Data set [1] has as its system HeLa cells. The experiment in a line: Cellular uptake of drug (ruthenium metal complex), monitored by MTT assay. To be noted: 24 hours, uptake correlated to cell death by MTT assay. As for the experimental part:
Cellular uptake of drug—HeLa cells were used for determining the enhanced uptake of the drug using the cell penetrating conjugate of the present invention. HeLa cells were seeded at a concentration of 10,000 in a 96-well plate and allowed to grow for 6-8 hours. Ruthenium metal complex and EfsQNR were mixed in different ratios of 1:1, 1:2, and 1:3 to form a conjugate, which was subsequently added to the cells. […] The cell death after 24 hours was monitored by MTT assay as described previously and was correlated to the percentage uptake of ruthenium-EfsQNR conjugate by HeLa cells.
FIG. 16 depicts the cellular uptake of the ruthenium metal complex Ru(CO)3Cl glycinate in HeLa cells. The ruthenium metal complex was conjugated with EfsQNR protein to form a conjugate consisting of ruthenium metal complex-EfsQNR. The HeLa cells were treated with the ruthenium metal complex-EfsQNR conjugate as described above (see “Cellular penetration studies” above) and uptake of the complex was detected by checking the viability of the cells by performing MTT assay as described previously. […] Therefore, it can be ascertained that the conjugate comprising EfsQNR protein facilitated 50-fold higher cellular uptake as compared to ruthenium metal complex alone. […]
A general note: Formazan colour is commonly taken as a measure of viable cells.

Data set [2] relates to HeLa cells. The experiment in a line: MTT toxicity assay of AlbG and EfsQNR proteins. To be noted: 30 μM protein; for viability as compared to the control cells: MTT; for absorbance values at 570 nm in MTT assay: triplicates, control wells 1.341-1.413. The procedure:
Toxicity assay—The industry-standard MTT assay (ex-Sigma Aldrich) was performed to analyse the toxicity of β-helical protein-cytotoxic drug conjugates against mammalian cells, for example HeLa cells. The cells were cultured by using standard protocol. One million cells were seeded in confocal plates (1 cm dish), grown for 6-8 h. A mixture of the cytotoxic drug and the EfsQNR protein (mixed at a ratio of 2:1) was added to the cells and incubated at room temperature for 15 minutes to 24 h to 72 h. After the incubation, the cells were washed with PBS and treated with MTT and further incubated for 24 hours. The cells were then washed and analysed for absorbance values at 570 nm. Viable cells with active metabolism convert MTT into a purple coloured formazan product with an absorbance maximum near 570 nm. Dead cells cannot convert MTT into formazan therefore, by analysing the absorbance values at 570 nm percentage of viable cells can be calculated for a given protein or any other molecule.
MTT assay as described previously was employed to study toxicity of AlbG and EfsQNR proteins against HeLa cells. For the toxicity assay, samples of Placebo, control, AlbG (30 μM) and EfsQNR (30 μM) were used in triplicates. On observing the values, it can be appreciated that the cells treated with 30 μM of AlbG and 30 μM of EfsQNR display 95% viability as compared to the control cells.
The placebo for this experiment was 20 mM Tris buffer of pH 8.0, whereas, the control considered was only HeLa cells without adding any protein or other substrate.

Data set [3] concerns drug resistant strains of bacteria (Pseudovibrio sp. Ad37/5/13/14 and Enterobacter). Nature of the data set: Uptake of A-520 labelled proteins in bacteria. To be noted: protein labelled with green fluorescent dye (A-520), 10 μM, 24 hours. As for the experimental part:
(§1) The uptake of labelled proteins was checked by treating E-coli and yeast (Kluveromyces) cells with different labelled proteins such as AlbG (SEQ ID NO: 1), EfsQNR (SEQ ID NO: 2). E coli or Kluveromyces cells were inoculated and grown overnight until OD reached 0.6. The cells were diluted to 50 times and 3 micromolar labelled protein (conjugate) was added. The cells were further grown under standard growth condition (37° C. shaking condition) for 24 h. The treated cells were then centrifuged and washed in PBS for 3-4 times. Then the cells were dispersed in 100 microliter PBS and then imaged in fluorescence/confocal microscope.
(§2) • Respective bacteria and yeast strains were inoculated the day before the experiment and allowed to grow overnight; • The cells were centrifuged and 2 ml fresh media was added; • 100-200 μL of cells were added to the mixture; • 10 μM of green labelled CPP was added; • Fresh media was added to bring the volume to 1 mL; • After 24 hours the treated cells were centrifuged and washed in PBS 3-4 times; • the cells were dispersed in 100 microliter PBS and then imaged in fluorescence/confocal microscope (FIGS. 25 and 26). […]

Data set [4] deals with yeast cells (Saccharomyces cerevisiae, Kluveromyces marxianus and Candida albicans). Nature of the data set: Uptake of A-520 labelled proteins in yeast cells. The following applies: protein labelled with green fluorescent dye (A-520), 10 μM, 24 hours. The procedure: as §1, §2
The test system of data set [5] is plant cells (Arabidopsis). The experiment in a line: Uptake of A-520 labelled proteins in plant cells. The following applies: protein labelled with green fluorescent dye (A-520), 20 μM, 24 hours. The procedure: • Respective bacteria and yeast strains were inoculated the day before the experiment and allowed to grow overnight; • The cells were centrifuged and 2 ml fresh media was added; • 100-200 μL of cells were added to the mixture; • 10 μM of green labelled CPP was added; • Fresh media was added to bring the volume to 1 mL; • After 24 hours the treated cells were centrifuged and washed in PBS 3-4 times; • the cells were dispersed in 100 microliter PBS and then imaged in fluorescence/confocal microscope (FIGS. 25 and 26). Protocol for Uptake in Plant Cells (Arabidopsis): • Plants were grown for 7 days prior to the experiment; • 20 μM of different cell-penetrating proteins such as AlbG (SEQ ID NO: 1), EfsQNR (SEQ ID NO: 2) labelled with a green fluorescent dye (A-520) were added to the plants in buffer [3 plants grown for 7 days] in 500 μL PBS; • The mixture was placed in a growth room for 24 hours under standard growth conditions (kept static in a room of continuous supply of light and 23° C. temperature); • The plants were washed with PBS 3 times and fresh PBS was then added and cells visualized under microscope. Non-coloured cells such as the cells of the roots and stems were chosen for visualisation to avoid interference (FIGS. 23 and 24). […]

The next data set deals with zebrafish embryos. Nature of the data set: Uptake of A-520 labelled proteins in zebrafish embryos. To be noted: protein labelled with green fluorescent dye (A-520), 10 μM, 2 h.
A further data set has as its system drosophila embryos. The experiment in a line: Uptake of A-520 labelled proteins in drosophila embryos. The following applies: protein labelled with green fluorescent dye (A-520), 10 μM, 2 h.

As to `NCC(=O)O.[C-]#[O+].[C-]#[O+].[C-]#[O+].[Cl][Ru]` [ruthenium metal complex, Ru(CO)3Cl glycinate], the cellular uptake in the data set on HeLa cells [1] is 0.5%.

B1: EfsQNR: recombinant β helical pentapeptide-repeat protein EfsQNR, amino acid sequence SEQ ID NO: 2 (protein)
chain: GSHMKITYPLPPNLPEQLPLLTNCQLEDEAILENHLYQQIDLPNQEVRNLVFRDAVFDHLSLANGQFASFDCSNVRFEACDFSNVEWLSGSFHRVTFLRCNLTGTNFADSYLKDCLFEDCKADYASFRFANFNLVHFNQTRLVESEFFEVTWKKLLLEACDLTESNWLNTSLKGLDFSQNTFERLTFSPNYLSGLKVTPEQAIYLASALGLVIT
modifications: Amino acid sequence of EfsQNR protein
With B1, the “viability as compared to the control cells” value in the data set on HeLa cells [2] was 95%. Further, the “absorbance values at 570 nm in MTT assay” value in the data set with HeLa cells [2] is 0.901 and 1.111 and 0.971. The “uptake observed by confocal laser scanning microscopy” value (in data set [3]; in data set [4]; in data set [5]; in the data set on zebrafish embryos; in the data set on drosophila embryos) was “taken up” in each case.

B2: AlbG: recombinant β helical pentapeptide-repeat protein AlbG, amino acid sequence SEQ ID NO: 1 (protein)
chain: MPAKTLESKDYCGESFVSEDRSGQSLESIRFEDCTFRQCNFTEAELNRCKFRECEFVDCNLSLISIPQTSFMEVRFVDCKMLGVNWTSAQWPSVKMEGALSFERCILNDSLFYGLYLAGVKMVECRIHDANFTEADCEDADFTQSDLKGSTFHNTKLTGASFIDAVNYHIDIFHNDIKRARFSLPEAASLLNSLDIELSD
modifications: Amino acid sequence of AlbG protein
As to B2, the “viability as compared to the control cells” value in the data set with HeLa cells [2] turned out to be 95%. Besides, the “absorbance values at 570 nm in MTT assay” value in the data set on HeLa cells [2] is 1.03 and 0.932 and 1.002. Further, the “uptake observed by confocal laser scanning microscopy” value (in data set [3]; in data set [4]; in data set [5]; in the data set with zebrafish embryos; in the data set on drosophila embryos) was “taken up” throughout.
